Reference: US20160051688A1 (Indiana University Research and Technology Corporation, priority 2010, published 2016)

Assays:
GPR119 = biological target: T1, GPR119 (Homo sapiens, UniProt Q8TDV5); conditions: CHO cells expressing GPR119; cited from earlier work
T1 construct: expressed in transfected cells; host or cells: CHO
T1 sequence (Q8TDV5 1-335): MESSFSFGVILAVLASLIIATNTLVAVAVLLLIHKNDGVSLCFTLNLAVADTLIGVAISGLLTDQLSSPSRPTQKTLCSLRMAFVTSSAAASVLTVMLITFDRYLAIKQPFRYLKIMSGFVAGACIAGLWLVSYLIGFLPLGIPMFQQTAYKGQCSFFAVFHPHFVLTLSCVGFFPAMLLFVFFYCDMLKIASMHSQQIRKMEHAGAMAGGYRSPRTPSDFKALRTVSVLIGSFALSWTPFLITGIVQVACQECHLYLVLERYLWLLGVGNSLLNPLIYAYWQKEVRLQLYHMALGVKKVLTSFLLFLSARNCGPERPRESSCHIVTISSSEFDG

GLP-1 receptor = GLP-1 receptor (UniProt P43220); test: cell-based or functional assay
glucagon receptor = glucagon receptor (UniProt P47871); test: cell-based or functional assay
Chain of glucagon receptor (P47871 26-477 limits assumed): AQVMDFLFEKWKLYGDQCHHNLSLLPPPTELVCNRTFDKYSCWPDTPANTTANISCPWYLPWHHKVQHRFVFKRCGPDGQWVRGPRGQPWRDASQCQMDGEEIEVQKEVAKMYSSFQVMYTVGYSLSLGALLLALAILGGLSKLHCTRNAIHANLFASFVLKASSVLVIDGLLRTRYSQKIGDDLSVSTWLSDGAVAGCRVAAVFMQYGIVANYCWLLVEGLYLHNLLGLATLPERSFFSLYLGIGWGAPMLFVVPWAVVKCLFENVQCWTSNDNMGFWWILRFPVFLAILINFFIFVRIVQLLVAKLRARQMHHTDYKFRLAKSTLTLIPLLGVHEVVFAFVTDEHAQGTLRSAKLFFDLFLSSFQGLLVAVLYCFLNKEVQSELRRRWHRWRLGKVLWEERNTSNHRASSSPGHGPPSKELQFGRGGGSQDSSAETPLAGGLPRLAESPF

Chain of GLP-1 receptor (P43220 24-463 limits assumed): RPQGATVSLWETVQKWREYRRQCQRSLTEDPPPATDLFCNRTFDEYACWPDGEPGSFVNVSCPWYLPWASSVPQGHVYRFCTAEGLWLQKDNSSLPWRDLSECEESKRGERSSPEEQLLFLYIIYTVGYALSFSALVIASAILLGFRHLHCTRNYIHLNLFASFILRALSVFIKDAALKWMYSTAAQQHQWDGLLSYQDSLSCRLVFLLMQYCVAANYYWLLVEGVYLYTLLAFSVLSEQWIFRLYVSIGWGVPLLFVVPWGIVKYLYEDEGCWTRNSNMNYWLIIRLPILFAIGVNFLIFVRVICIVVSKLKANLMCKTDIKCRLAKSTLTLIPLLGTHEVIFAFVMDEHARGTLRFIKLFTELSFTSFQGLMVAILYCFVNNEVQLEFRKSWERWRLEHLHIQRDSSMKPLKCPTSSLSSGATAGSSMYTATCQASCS

Row | Glucagon IC50 (nM); PA = partial antagonist (glucagon receptor) | Molecule | cAMP levels (GPR119) | GLP-1 EC50 (GLP-1 receptor) | GLP-1 ECso (GLP-1 receptor) | Glu ICso (glucagon receptor) | Glucagon IC50 (glucagon receptor)
1 |  | CCCCCCCCCCCCCCCCOC[C@@H](O)COP(=O)([O-])OCC[N+](C)(C)C [lyso-platelet activating factor] | increased cAMP levels |  |  |  | 
2 |  | D9, K12E16(Lactam) glucagon(6-39) Cex peptide (Peptide 4 of Table 13) |  | 18 nM | 119 nM | 828 nM | 828 nM
3 |  | E9, E16K20(lactam) glucagon(6-39) Cex peptide (Peptide 3 of Table 13) |  | 36 nM | 36 nM | 42 nM | 42 nM
4 |  | E9, K12, E16 glucagon(6-39) Cex peptide (Peptide 1 of Table 13) |  |  |  | 762 nM | 762 nM
5 |  | E9, K12E16(lactam) glucagon(6-39) Cex peptide (Peptide 2 of Table 13) |  | 63 nM | 63 nM | 2010 nM | 2010 nM
6 | 49 nM | [E9, E16K20(lactam), D28]G(2~29) (peptide) |  |  |  |  | 
7 |  | platelet-activating factor | increased cAMP levels |  |  |  | 
